Experimental data reported in patent US20110002945A1.

Tests used:
[1] = target: recombinant λ6-variable domain light chain Jto in fibrillar form; assay: EuLISA on plate-immobilized fibrils
[2] = target: recombinant λ6-variable domain light chain Jto in fibrillar form; assay: binding to plate-immobilized fibrils
[3] = target: fibrillar Aβ1-40 peptide (Homo sapiens (Human)) (UniProt P05067)
Sequence of fibrillar Aβ1-40 peptide (Homo sapiens (Human)) (P05067 672-711 limits assumed): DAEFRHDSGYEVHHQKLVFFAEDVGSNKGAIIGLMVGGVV

B1: antibody heavy chain F1 (protein)
heavy: AMDWTWSILFLVAAATGAHSQVQLVQSGAEVKKPGASVKVSCKASGYTFSSNGIIWVRQAPGQGLEWLGWISGYNGKTRYAQKVQGRVTITTDTSTSTAYMELRSLRSDDTAVYYCAREKTMVRGAISGYSDYWGQGTLVTVSSASTKGPSVFPLAPSSKSTSGGTAALGCLVKDYFPEPVTVSWNSGALTSGVHTFPAVLQSSGLYSLSSVVTVPSSSLGTQTYICNVNHKPSNTKVDKKRVEPKSCDKTHTCPPCPAPELLGGPSVFLFPPKPKDTLMISRTPEVTCVVVDVSHEDPEVKFNWYVDGVEVHNAKTKPREEQYNSTYRVVSVLTVLDHQDWLNGKEYKCKVSNKALPAPIEKTISKAKGQPREPQVYTLPPSREELMTKNQVSLTCLVKGFYPSDIAVEWESNGQPENNYKTTPPVLDSDGSFFLYSKLTVDKSRWQQGNVFSCSVMHEALHNHYTQKSLSLSPGK
Binder B1 has an EC50 [1] of 24 nM, a Max. Eu3+ [1] of 195 fmol and an affinity [2] of 20 nM. For the same binder, the Aβ fibril growth (recruitment of soluble biotinylated Aβ monomer to plate-bound Aβ1-40 fibrils, EuLISA) [3] was 1 µM.
